Consider one variant from IntAct's records for PubMed 16304051.

B1: Multiple coagulation factor deficiency protein 2 (Homo sapiens), Q8NI22 (parent)
chain: MTMRSLLRTPFLCGLLWAFCAPGARAEEPAASFSQPGSMGLDKNTVHDQEHIMEHLEGVINKPEAEMSPQELQLHYFKMHDYDGNNLLDGLELSTAITHVHKEEGSEQAPLMSEDELINIIDGVLRDDDKNNDGYIDYAEFAKSLQ
partner: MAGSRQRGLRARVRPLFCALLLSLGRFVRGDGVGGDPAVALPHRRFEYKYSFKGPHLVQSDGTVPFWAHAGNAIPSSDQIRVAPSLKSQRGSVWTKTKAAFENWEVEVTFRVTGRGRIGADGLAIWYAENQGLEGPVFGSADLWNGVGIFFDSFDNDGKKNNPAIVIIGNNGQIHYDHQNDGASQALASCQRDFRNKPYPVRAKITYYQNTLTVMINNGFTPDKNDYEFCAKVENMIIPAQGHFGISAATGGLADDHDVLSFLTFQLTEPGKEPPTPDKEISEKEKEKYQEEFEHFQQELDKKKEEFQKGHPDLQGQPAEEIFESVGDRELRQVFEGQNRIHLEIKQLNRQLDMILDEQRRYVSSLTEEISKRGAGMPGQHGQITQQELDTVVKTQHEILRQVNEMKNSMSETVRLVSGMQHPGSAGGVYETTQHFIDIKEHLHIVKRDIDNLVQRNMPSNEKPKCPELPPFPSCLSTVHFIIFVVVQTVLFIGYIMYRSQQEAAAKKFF

Variants of B1 are the subject of the test. Conditions: with lman1_human LMAN1, P49257.
Turning to MTMRSLLRTPFLCGLLWAFCAPGARAEEPAASFSQPGSMGLDKNTVHDQEHIMEHLEGVINKPEAEMSPQELQLHYFKMHDYDGNNLLDGLELSTAITHVHKEEGSEQAPLMSEDELINIIDGVLRDDDKNNDGYTDYAEFAKSLQ [I136T], the “effect of a mutation on the interaction” value is reported as “with no effect”.
